Reference: patent US20100092460A1 (Ablynx, published 2010)
Values belong to the binder of their own block, whether it stands above or below them.

B2: recombinant human CXCL11/I-TAC (ligand, UniProt O14625 22-94, looked up)
chain: FPMFKRGRCLCIGPGVKAVKVADIEKASIMYPSNNCDKIEVIITLKENKGQRCLNPKSKQARLIIKKVERKNF
modifications: biotinylated in the ELISA; 125I label in the radioligand assays
B4: CCL5 (ligand, UniProt P13501 24-91, looked up)
chain: SPYSSDTTPCCFAYIARPLPRAHIKEYFYTSGKCSNPAVVFVTRKNRQVCANPEKKWVREYINSLEMS
modifications: also: 125I label, position not given here
notes: also called RANTES

Key:
[1] = target: T1, recombinant human CCL2/MCP1 (human, UniProt P13500 24-99, 125I label in the radioligand assays); experiment: inhibition of 125I-CCL2 binding to hCCR2 (HEK293T cells), purified Nanobody and 10x diluted extract
T1 construct: Immunogen and selection antigen was the Mucin stalk Chimera (R&D 979-MC/CF)

[2] = target: T2, hCXCR3 (human, UniProt P49682 1-368); experiment: competition of unlabeled CXCL11 with 125I-CXCL11 on HEK293T cells with hCXCR3
T2 construct: whole, on cells
T2 sequence (looked up): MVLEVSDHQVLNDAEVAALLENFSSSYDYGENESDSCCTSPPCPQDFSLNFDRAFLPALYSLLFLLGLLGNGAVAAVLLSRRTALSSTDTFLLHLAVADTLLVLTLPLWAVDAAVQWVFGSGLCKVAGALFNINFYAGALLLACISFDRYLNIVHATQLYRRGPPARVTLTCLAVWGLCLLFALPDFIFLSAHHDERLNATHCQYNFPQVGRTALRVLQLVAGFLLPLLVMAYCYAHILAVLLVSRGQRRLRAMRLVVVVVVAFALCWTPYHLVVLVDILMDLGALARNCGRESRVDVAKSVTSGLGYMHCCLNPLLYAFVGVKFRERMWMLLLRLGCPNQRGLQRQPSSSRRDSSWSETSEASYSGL

[3] = target: T3, recombinant human CCL5/RANTES (Mucin stalk Chimera) (human, UniProt P13501 24-91, biotinylated in the ELISA); experiment: ELISA, periplasmic extract on biotinylated mucin-CCL5 on neutravidin, anti-myc detection
T3 construct: also called mucin-CCL5; not shown: mucin stalk of the chimera (R&D 978-RN/CF); origin, limits and order not described
T3 sequence (looked up): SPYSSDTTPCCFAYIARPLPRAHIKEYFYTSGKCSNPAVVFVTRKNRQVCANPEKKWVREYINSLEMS

[4] = target: B4; experiment: inhibition of 125I-CCL5 binding to hCCR1 (HEK293T cells), purified Nanobody
[5] = target: T4, hCCR1 (human, UniProt P32246 1-355); experiment: competition of unlabeled CCL5 with 125I-CCL5 on HEK293T cells with hCCR1
T4 construct: whole, on cells
T4 sequence (looked up): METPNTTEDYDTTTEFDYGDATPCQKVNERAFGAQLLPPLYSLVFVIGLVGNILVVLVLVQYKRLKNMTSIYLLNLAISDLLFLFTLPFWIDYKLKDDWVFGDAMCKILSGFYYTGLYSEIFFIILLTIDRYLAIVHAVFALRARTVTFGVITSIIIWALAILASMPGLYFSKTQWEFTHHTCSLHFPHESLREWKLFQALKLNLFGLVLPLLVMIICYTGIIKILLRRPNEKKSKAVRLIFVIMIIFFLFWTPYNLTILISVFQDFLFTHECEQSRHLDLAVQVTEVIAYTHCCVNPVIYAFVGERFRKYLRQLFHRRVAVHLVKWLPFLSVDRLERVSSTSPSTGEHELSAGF

[6] = target: T1, recombinant human CCL2/MCP1; experiment: inhibition of 125I-CCL2 binding to hCCR2 (HEK293T cells), 10x diluted extract
[7] = target: B2; experiment: inhibition of 125I-CXCL11 binding to hCXCR3 (HEK293T cells), purified Nanobody
[8] = target: T5, recombinant human CXCL12/SDF1alpha (human, UniProt P48061-2 22-89, biotinylated in the ELISA; 125I label in the radioligand assays); experiment: inhibition of 125I-CXCL12 (57 pM) binding to CXCR4 on HEK293T cells; specific-binding data
[9] = target: T5, recombinant human CXCL12/SDF1alpha; experiment: inhibition of 125I-CXCL12 (57 pM) binding to CXCR4 on HEK293T cells; radioligand preincubated with purified Nanobody; total binding data
[10] = target: T5, recombinant human CXCL12/SDF1alpha; experiment: cell-based or functional assay

T5 sequence (P48061 22-89 limits assumed): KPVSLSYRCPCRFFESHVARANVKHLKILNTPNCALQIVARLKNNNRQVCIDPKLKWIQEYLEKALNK
T1 sequence (P13500 24-99 limits assumed): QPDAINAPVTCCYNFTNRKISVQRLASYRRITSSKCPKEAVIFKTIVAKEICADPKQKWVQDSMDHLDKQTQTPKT

binding result [1]: binds
B1: Nanobody 16C1 (VHH)
VHH: EVQLVESGGGLVQAGGSLRLSCAASGRTFSSYVMGWFRQAPGKEREFVAAIRWSGGSTYYADSVKGRFTISRDNAKNTVYLQMNSLKPEDTAVYYCAADLLGDSDYEPSSGFGSWGQGTQVTVSS
notes: llama VHH against CCL2; not shown: C-terminal c-myc tag and (His)6 tag coded by the vector

Binder: B2
binding result [2]: binds

binding result [3]: binds | binding result [4]: binds
B3: Nanobody 10H3 (VHH)
VHH: EVQLVESGGGLVQAGGSLRLSCAASGRTFSTYVMGWFRQAPGKEREFVAGITSSIGVTRYAGSVQDRFTISKDNAKNTVFLQMNSLKPEDTADYYCAARPDYYISINPVAYPYWGQGTQVTVSS
notes: llama VHH against CCL5; purified; not shown: C-terminal c-myc tag and (His)6 tag coded by the vector

Binder: B4
binding result [5]: binds

binding result [6]: binds
B5: Nanobody 16D5 (VHH)
VHH: EVQLVESGGGLVQAGGSLRLSCAASGFTFDDYAIAWFRQAPGKEREVVSCISSSDGSTYYADSVKGRFTISSDNAKNTVFLQMNSLKPEDTAVYYCAAVSNCPRDSDYIPYLHYWWGQGTQVTVSS
notes: as for B1

binding result [7]: binds
B6: Nanobody 11G9 (VHH)
VHH: EVQLVESGGGLVQPGGSLRLSCAASGGTLDDYVIGWFRQAPGKEREGVSCISSTDGSTYYADSVKGRFTISRDNAKNTVYLQVNSLKPEDTAVYYCAAGMGVLRQWALSKLSYDYWGQGTQVTVSS
notes: llama VHH against CXCL11; not shown: C-terminal c-myc tag and (His)6 tag coded by the vector

pIC50 [8]: 9.1 | pIC50 [9]: 8.7 | inhibition of CXCL12-induced PLC activation (3H-inositol phosphate accumulation, HEK293T cells with CXCR4 and G-alpha-qi5), pIC50 [10]: 7.2
B7: Nanobody 12A4 (VHH)
VHH: EVQLVESGGGLVQPGGSLRLSCAASGFTLDDYAIGWFRQAPGKEREGVSCINSNDGNTYYADSVKGRFTISRDNAKSTVYLQMNSLKPDDTAVYYCAAEAMGYCSAYGSFEGYWGQGTQVTVSS
notes: llama VHH against CXCL12; purified; also called 12C1; 12E4; not shown: C-terminal c-myc tag and (His)6 tag coded by the vector
